# Patent US12440549B2, “Polyvalent immunogenicity composition for human papillomavirus” (SinoCellTech Ltd., priority 2019, dated 2025)
# Assay: Expression and solubility of L1 protein in insect cells (cell lysate vs supernatant, SDS-PAGE)
# Format: physicochemical
# Settings: supernatant after centrifugation of lysate
# Experimental: FIG. 4: Expression of C-terminal truncated HPV 16L1 (1-474). M: Marker; L: cell lysates; E-S: supernatant collected after centrifugation of the lysates.
# High Five cells were infected with baculovirus containing the HPV6 L1: 33C recombinant gene obtained in Example 2 at a ratio of 1:200 (V/V), and the cell precipitate was collected by centrifugation at 1000 g±100 g at room temperature. The cells were broken up by sonication at low temperature for 3 min, centrifuged at >10,000 g for 10 min and the supernatant was collected for SDS-PAGE. Lane 1: Marker (The marker is a mixture of 7 purified proteins with molecular weights ranging from 14.4 kDa to 116 kDa, produced by Thermo Scientific); Lane 2: cell lysate; Lane 3: supernatant of the lysate collected by centrifugation.
# The inventors attempted to truncate the C-terminus of HPV16 L1 by 31 amino acids and named it HPV16 L1 (1-474) (SEQ ID NO: 27).
substance,measurement,setting,value
HPV16 L1 (1-474): Comparative example: HPV16 L1 protein with the C-terminus truncated by 31 amino acids,solubility of the expressed L1 protein,,very poor solubility
same,solubility of the expressed L1 protein,listed as HPV 16 L1 (1-474),poor solubility
